The results in this text go back to article PMC9929924, “Phosphorylation of the receptor protein Pex5p modulates import of proteins into peroxisomes” (Biological Chemistry, 2022).

The subject of one data set is yeast cells. In words: Growth of yeast cells expressing Pex5p variants. Type of data set: cell-based, S. cerevisiae. The conditions noted are these: n = 3; for growth in oleate: oleate as sole carbon source (YNO medium). The source says:
Synthetic complete (SC) medium consisted of 0.17% (w/v) yeast nitrogen base (YNB) without amino acids, 0.5% (w/v) ammonium sulfate, and 0.3% (w/v) glucose (pH 6.0) supplemented with appropriate amino acids ([Schummer et al. 2017]). YNO medium contained 0.1% (v/v) oleic acid, 0.05% (v/v) Tween 40, 0.5% (w/v) ammonium sulfate, and 0.17% (w/v) yeast nitrogen base without amino acids, adjusted to pH 6.0 and supplemented with appropriate amino acids. For growth under peroxisome-proliferating conditions, cells were cultured at 30 °C in SC medium until they reached an optical density at 600 nm (OD600) of 1–1.5 and then shifted to YNO medium to induce peroxisome proliferation. Cells were grown for further 12–16 h or as indicated. For growth of cells in glucose medium, SC medium was supplemented with 2% (w/v) glucose.

Data set [1] deals with GFP-SKL import in pex5Δ yeast cells. In words: Fluorescence microscopy, import of GFP-SKL in cells expressing Pex5p variants. Type of data set: cell-based, S. cerevisiae. Particulars: pex5Δ cells expressing plasmid-encoded Pex5p variant and GFP-SKL, grown in oleate. As for the experimental part:
Cells expressing distinct Pex5p variants (wildtype, Pex5p^2A or Pex5p^2D) and GFP-SKL were grown overnight in 50 ml YNO medium supplemented with 0.1% (w/v) glucose to an OD600 of 1–1.5. Aliquots of 5.4 ml were taken and formaldehyde was added to a final concentration of 3.7% (v/v). Samples were incubated for 10 min at RT with slight agitation. Cells were collected by centrifugation (5 min at 2000 g), resuspended in 1 ml of 0.1 M potassium phosphate buffer (pH 6.8) containing 3.7% (v/v) formaldehyde and incubated for 1 h at RT with slight agitation. Following centrifugation (30 s at 16,000 g), cells were resuspended in 1 ml of 0.1 M potassium phosphate buffer (pH 6.8) containing 10 mM ethanolamine and incubated for further 10 min at RT. Subsequently, cells were washed twice with phosphate-buffered saline (PBS) and resuspended in 10–20 µl of PBS containing 0.1% (v/v) Triton X-100. Fixed cells were analyzed within 48 h after preparation.
Fluorescence microscopy was performed using a Zeiss Axio Observer.Z1 microscope equipped with an alpha Plan-Aprochromat 100× objective and an AxioCam MR R3. GFP signal was visualized with a 38 HE filterset from Zeiss. Images were processed using Adobe Photoshop CS5 (version 12.0.4 ×64; Adobe Systems Incorporated). To document the structural integrity of cells, bright field images were acquired, adjusted in a way that only the cell boundaries were visible and subsequently added into the blue channel in Photoshop as reported before ([Motley and Hettema 2007]).

A further data set deals with organellar pellet. In words: Distribution of Pex5p variants between cytosolic fraction and organellar pellet. Type of data set: cell-based, S. cerevisiae. The conditions noted are these: postnuclear supernatants of oleate-grown cells; immunoblot; n = 3. As for the experimental part:
Spheroplasting of yeast cells, homogenization, preparation of postnuclear supernatants and generation of cytosolic fractions and organellar pellets by centrifugation (25,000 g for 15 min at 4 °C) were performed as described previously ([Erdmann et al. 1989]).
Immunoblot analyses were performed according to standard procedures. Polyclonal rabbit antibodies used were raised against Pex5p ([Albertini et al. 1997]), Pex14p ([Girzalsky et al. 1999]), Pex13p ([Girzalsky et al. 1999]) and Pex17p ([Huhse et al. 1998]). To detect GFP, monoclonal mouse antibodies (Sigma-Aldrich/Merck or Roche Diagnostics, Germany) were used. Immuno-reactive complexes were visualized either using the IRDye 800CW goat anti-mouse IgG or IRDye 680RD goat anti-rabbit secondary antibody (Li-COR Biosciences, Bad Homburg, Germany) followed by detection with an ‘Infrarot Imaging System’ (Li-COR Biosciences) or using horseradish-peroxidase coupled anti-rabbit or anti-mouse antibodies (Sigma-Aldrich/Merck, Germany) and subsequent detection of chemiluminescence signals with a ChemoCam Camera system (INTAS Science instruments GmbH, Göttingen, Germany). Quantification of immunoblot signals (Supplementary Figure 1E; n = 3) was performed using the software Image Studio Lite (LI-COR Biosciences).
(In general: A western blot detects proteins with antibodies after separation by electrophoresis.)

A short description of data set [2]: Thermal unfolding by circular dichroism and nano-differential scanning fluorimetry. The conditions noted are these: circular dichroism thermal ramping (20-70 °C, 220 nm) and nanoDSF (0.35 mg ml^−1, 1 °C min^−1); 25 mM phosphate pH 7.5, 150 mM NaF; triplicates. Type of data set: physicochemical. As for the experimental part: Thermal unfolding coupled to CD was performed between 20 °C and 70 °C with a measure in triplicate every 5 °C increment. Millidegree values at 220 nm were plotted against their temperature and the melting temperature calculated using a Boltzmann sigmoidal equation.
Melting temperatures were measured by Nano differential scanning fluorimetry using a Prometheus NT.48 (Nanotemper). Tryptophan intrinsic fluorescence emission was recorded at 330 and 350 nm with 30% excitation power during thermal ramping from 20 to 90 °C (1 °C min^−1). 10 μl of proteins in 25 mM phosphate buffer (pH 7.5), 150 mM NaF and at a concentration of 0.35 mg ml^−1 were loaded in nanoDSF grade standard capillaries. Samples were measured in triplicates and the calculated melting temperatures averaged. Melting temperature were calculated by the software PR.ThermControl.

B1: Pex5p^WT: Pex5p wildtype, PTS1 receptor of S. cerevisiae (protein)
chain: MDVGSCSVGNNPLAQLHKHTQQNKSLQFNQKNNGRLNESPLQGTNKPGISEAFISNVNAISQENMANMQRFINGEPLIDDKRRMEIGPSSGRLPPFSNVHSLQTSANPTQIKGVNDISHWSQEFQGSNSIQNRNADTGNSEKAWQRGSTTASSRFQYPNTMMNNYAYASMNSLSGSRLQSPAFMNQQQSGRSKEGVNEQEQQPWTDQFEKLEKEVSENLDINDEIEKEENVSEVEQNKPETVEKEEGVYGDQYQSDFQEVWDSIHKDAEEVLPSELVNDDLNLGEDYLKYLGGRVNGNIEYAFQSNNEYFNNPNAYKIGCLLMENGAKLSEAALAFEAAVKEKPDHVDAWLRLGLVQTQNEKELNGISALEECLKLDPKNLEAMKTLAISYINEGYDMSAFTMLDKWAETKYPEIWSRIKQQDDKFQKEKGFTHIDMNAHITKQFLQLANNLSTIDPEIQLCLGLLFYTKDDFDKTIDCFESALRVNPNDELMWNRLGASLANSNRSEEAIQAYHRALQLKPSFVRARYNLAVSSMNIGCFKEAAGYLLSVLSMHEVNTNNKKGDVGSLLNTYNDTVIETLKRVFIAMNRDDLLQEVKPGMDLKRFKGEFSF
modifications: left off: His6, N-terminal, state not stated
notes: Pex5p wildtype, PTS1 receptor of S. cerevisiae
Turning to B1, the growth on glucose entry in the data set on yeast cells (SC medium containing 2% glucose, compared to Pex5p^WT cells) was “equivalent to Pex5p^WT cells”. The results for the growth in oleate result in the data set on yeast cells (listed as Pex5p^2A) and in the data set with yeast cells (listed as Pex5p^2D) were “grew similar to wildtype cells in oleate” and “significant growth defect”, respectively. For the same molecule, the “subcellular distribution of GFP-SKL” value is “import of GFP-SKL is restored” in data set [1]; “no import phenotype” in data set [1] (listed as Pex5p^2A); “both a punctate staining and diffuse cytosolic fluorescence, suggesting a reduced import of GFP-SKL into peroxisomes” in data set [1] (listed as Pex5p^2D). Besides, the “distribution between cytosolic fraction and organellar pellet (membrane binding)” value in the data set with organellar pellet is listed as “no detectable difference”. Also, in data set [2], the melting temperature entry was “approximately 46 °C”.
